Where no end group is shown, it is not given here.
Legend:
HyBcl-2-4 = test: ITC binding of BH3 motif peptides to HyBcl-2-4; design: species or system Hydra vulgaris; settings: read-out: KD (dissociation constant), HyBcl-2-4, MicroCal iTC200, 25°C, tag-free HyBcl-2-4 lacking 30 C-terminal residues, 25 mM Hepes pH 7.5, 150 mM NaCl, means of 3 experiments ± SD, NB: no binding detected
[1] = target: T1, human A1/Bfl-1 (residues 1-151) (human, UniProt Q16548 1-151); test: ITC
T1 sequence (looked up): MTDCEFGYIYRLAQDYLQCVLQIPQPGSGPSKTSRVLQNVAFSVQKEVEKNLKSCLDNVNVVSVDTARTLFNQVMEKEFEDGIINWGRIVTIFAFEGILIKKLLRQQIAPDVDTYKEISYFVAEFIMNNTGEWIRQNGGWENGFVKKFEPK

[2] = target: human Bcl-2 (residues 10-203) (human, UniProt P10415 10-203); test: ITC
[3] = target: human Mcl-1 (residues 171-320) (human, UniProt Q07820 171-320); test: ITC
[4] = target: T2, human Bcl-w (residues 9-152) (human, UniProt Q92843 9-152); test: ITC
T2 sequence (looked up): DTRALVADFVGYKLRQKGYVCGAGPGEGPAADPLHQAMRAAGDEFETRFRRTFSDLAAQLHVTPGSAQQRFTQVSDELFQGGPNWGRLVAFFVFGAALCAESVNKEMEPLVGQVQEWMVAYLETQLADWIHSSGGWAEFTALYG

[5] = target: human Bcl-xL (residues 1-209 Δloop45-84) (human, UniProt Q07817-1 1-209, Δloop45-84); test: ITC
[6] = target: HyBcl-2-4 lacking 30 C-terminal residues (fusion tag-free) (Hydra vulgaris); test: ITC

Sequence of human Bcl-2 (residues 10-203) (P10415 10-203): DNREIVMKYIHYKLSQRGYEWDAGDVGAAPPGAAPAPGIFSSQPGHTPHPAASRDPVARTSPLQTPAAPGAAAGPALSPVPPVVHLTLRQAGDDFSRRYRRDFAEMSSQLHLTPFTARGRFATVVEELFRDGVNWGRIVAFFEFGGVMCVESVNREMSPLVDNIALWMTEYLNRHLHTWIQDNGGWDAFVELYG
Sequence of human Mcl-1 (residues 171-320) (Q07820 171-320): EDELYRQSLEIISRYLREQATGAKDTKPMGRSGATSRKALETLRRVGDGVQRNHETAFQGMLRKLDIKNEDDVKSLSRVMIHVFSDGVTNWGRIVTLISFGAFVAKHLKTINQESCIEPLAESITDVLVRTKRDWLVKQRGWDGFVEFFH

SMRRLRAIGACLRAIGDDIQSRSEKS [HyBH3-only]
Kd (HyBcl-2-4): 149 nM

B1: HyBax BH3 motif peptide (peptide)
peptide: SRNGTVNKEVAHCLKRIGDDLVNNHQLN
binding result [1]: binds
binding result [2]: binds
Kd [3]: 41 nM
binding result [4]: binds
binding result [5]: binds
Kd [6]: 2290 nM

B2: HyBH3-only-2 BH3 motif peptide (peptide)
peptide: SMRRLRAIGACLRAIGDDIQSRSEKS
binding result [1]: binds
binding result [2]: binds
Kd [3]: 50 nM
binding result [4]: binds
binding result [5]: binds
Kd [6]: 149 nM

B3: HyBak1 BH3 motif peptide (peptide)
peptide: SNGETENLGRVLASFGDEINDKYRQV
binding result [1]: binds
binding result [2]: binds
Kd [3]: 67 nM
binding result [4]: binds
binding result [5]: binds

From article PMC7489894 (Biochemical Journal, 2020)
